Test results published in PMC9669668.
Where two headings read alike, the source gives them in different places.

Columns and labels:
[1] = target: nucleotide-binding domain of Hsp70 (Hsp70 NBD, aa 1–382) (human) (UniProt P0DMV8); test: ITC
[2] = target: nucleotide-binding domain of Hsp70 (Hsp70 NBD, aa 1–382) (human) (UniProt P0DMV8); test: ITC; remark: listed apart in the source

Chain of UniProt P0DMV8 (P0DMV8 1-382): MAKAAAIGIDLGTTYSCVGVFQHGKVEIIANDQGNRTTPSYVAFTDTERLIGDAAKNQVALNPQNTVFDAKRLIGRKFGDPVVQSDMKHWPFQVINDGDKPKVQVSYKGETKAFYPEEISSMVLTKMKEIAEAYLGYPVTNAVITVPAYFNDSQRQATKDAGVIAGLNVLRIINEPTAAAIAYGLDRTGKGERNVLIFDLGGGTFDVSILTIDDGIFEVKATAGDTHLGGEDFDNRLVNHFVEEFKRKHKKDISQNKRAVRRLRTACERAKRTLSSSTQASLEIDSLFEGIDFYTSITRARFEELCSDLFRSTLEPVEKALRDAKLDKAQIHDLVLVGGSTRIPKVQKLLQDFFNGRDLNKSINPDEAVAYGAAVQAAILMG

Kd [1] [µM] | Kd [2] [µM] | stoichiometry N [2] | Substance
56.5 | 15.9 | 1 | FAF1 (aa 1–171) (from UniProt Q9UNN5 1-171) (domain or fragment)
3.1 | 3.1 | 1 | FAF1 L-UBL1 (aa 91–171) (from UniProt Q9UNN5 91-171) (domain or fragment)
